The Immune Epitope Database (IEDB)

Experiments:
Conditions in all cases: source organism: Hepatitis B virus
HLA-B*51:01 [1] = assay: IEDB peptide-MHC binding, purified MHC/competitive/radioactivity; filed as Kd, often an IC50 or EC50 that approximates it; ≥ and ≤ were set here for values at or beyond the usual limits of such assays
HLA-A*31:01 = assay: as above
HLA-A*03:01 [2] = assay: as above
HLA-A*68:01 [3] = assay: as above
HLA-A*33:01 = assay: as above
HLA-B*35:01 = assay: IEDB peptide-MHC binding, purified MHC/competitive/radioactivity; ≥ and ≤ were set here for values at or beyond the usual limits of such assays
HLA-B*51:01 [4] = assay: as above
HLA-B*53:01 = assay: as above
HLA-A*68:01 [5] = assay: as above
HLA-A*02:06 = assay: IEDB peptide-MHC binding, purified MHC/competitive/radioactivity; filed as Kd, often an IC50 or EC50 that approximates it; ≥ and ≤ were set here for values at or beyond the usual limits of such assays
HLA-A*03:01 [6] = assay: IEDB peptide-MHC binding, purified MHC/competitive/radioactivity; ≥ and ≤ were set here for values at or beyond the usual limits of such assays
HLA-A*02:03 = assay: IEDB peptide-MHC binding, purified MHC/competitive/radioactivity; filed as Kd, often an IC50 or EC50 that approximates it; ≥ and ≤ were set here for values at or beyond the usual limits of such assays

For DPSRGRLGL, the Kd (HLA-B*51:01 [1]) was ≥ 25 µM.

VTGGVFLVDK was tested, and the Kd (HLA-A*31:01) was ≥ 25 µM.

GTDNSVVLSR was tested, and the Kd (HLA-A*03:01 [2]) was ≥ 10 µM and the Kd (HLA-A*68:01 [3]) was ≥ 20 µM.

For KVGNFTGLY, the Kd (HLA-A*31:01) was ≥ 25 µM, the Kd (HLA-A*33:01) was ≥ 25 µM and the Kd (HLA-A*68:01 [3]) was ≥ 25 µM.

Work on IPIPSSWAF yielded an IC50 (HLA-B*35:01) of 0.0026 µM and an IC50 (HLA-B*51:01 [4]) of 0.22 µM.

For YPALMPLYA, the IC50 (HLA-B*35:01) was 0.15 µM, the IC50 (HLA-B*51:01 [4]) was 0.162 µM and the IC50 (HLA-B*53:01) was 0.664 µM.

In the case of VVDFSQFSR, the IC50 (HLA-A*68:01 [5]) is reported as 0.32 µM.

GLLGWSPQA was tested, and the Kd (HLA-A*02:06) was 1.32 µM.

With GTDNSVVLSRK the IC50 (HLA-A*03:01 [6]) was 0.786 µM, the Kd (HLA-A*31:01) was ≥ 25 µM and the Kd (HLA-A*33:01) was ≥ 25 µM. The Kd (HLA-A*68:01 [3]) was ≥ 25 µM.

With YMDDVVLGAK the Kd (HLA-A*31:01) was ≥ 25 µM, the Kd (HLA-A*33:01) was ≥ 25 µM and the Kd (HLA-A*68:01 [3]) was ≥ 25 µM.

In the case of TPARVTGGVF, the Kd (HLA-B*51:01 [1]) is reported as ≥ 25 µM.

With PVNRPIDWK the Kd (HLA-A*31:01) was ≥ 25 µM and the Kd (HLA-A*33:01) was ≥ 25 µM.

With MMWYWGPSLY the Kd (HLA-A*31:01) was ≥ 25 µM, the Kd (HLA-A*33:01) was ≥ 25 µM and the Kd (HLA-A*68:01 [3]) was ≥ 25 µM.

With RVTGGVFLVDK the IC50 (HLA-A*03:01 [6]) was 0.579 µM, the Kd (HLA-A*31:01) was ≥ 25 µM and the Kd (HLA-A*33:01) was ≥ 25 µM. The Kd (HLA-A*68:01 [3]) was ≥ 25 µM.

In the case of TLWKAGILY, the Kd (HLA-A*33:01) is reported as ≥ 25 µM and the Kd (HLA-A*68:01 [3]) is reported as ≥ 25 µM.

In the case of HTLWKAGILY, the Kd (HLA-A*31:01) is reported as ≥ 25 µM.

For YMDDVVLGA, the Kd (HLA-A*02:03) was 4.17 µM and the Kd (HLA-A*02:06) was ≥ 25 µM.
